# Results taken from the Human Domainome abundance scans (Beltran et al. 2025).
# ± gives the uncertainty stated by the source.
# B1: POU domain, class 4, transcription factor 1, residues 266 to 347; numbered along this chain, Q01851 (parent)
# chain: RELEAFAERFKQRRIKLGVTQADVGSALANLKIPGVGSLSQSTICRFESLTLSHNNMIALKPILQAWLEEAEGAQREKMNKP
# Variants of: B1
# Experiment: abundance fitness (aPCA) (normalised: wild type 0, dead -1); higher = more abundant; growth selection in yeast, the domain comes from the species named
# Settings: Homo sapiens
row,Variant,abundance fitness
1,RELEAFAERFKQRRIKLGVTQADVGSALANLKIPGVGSLSESTICRFESLTLSHNNMIALKPILQAWLEEAEGAQREKMNKP [Q41E],0.051 ± 0.039
2,RELEAFAERFKQRRIKLGVTQADVGSALANLKIPGVGSLSASTICRFESLTLSHNNMIALKPILQAWLEEAEGAQREKMNKP [Q41A],0.053 ± 0.044
3,RELEAFAERFKQRRIKLGVTQADVGSALANLKIPGVGSLSQSTICRFEALTLSHNNMIALKPILQAWLEEAEGAQREKMNKP [S49A],-0.004 ± 0.031
4,RELEAFAERFKQRRIKLGVTQADVGSALANLKIPGVGSLSQSTICRFESLTLSHNEMIALKPILQAWLEEAEGAQREKMNKP [N56E],0.032 ± 0.044
5,RELEAFAERFKQRRIWLGVTQADVGSALANLKIPGVGSLSQSTICRFESLTLSHNNMIALKPILQAWLEEAEGAQREKMNKP [K16W],-0.177 ± 0.05
6,RELEAFAERFKQRRIKLGVTQADVGSALANLKIPGVGSLSQSTICRFESLTLSHNNMNALKPILQAWLEEAEGAQREKMNKP [I58N],0.021 ± 0.1
7,RELEAFAERFKQRRIKLGVTQADVGSALANLKIPGVGSLSQSTICRFESLTLSHNNMEALKPILQAWLEEAEGAQREKMNKP [I58E],-0.023 ± 0.069
8,RELEAFAERFKQRRIKLGVTQADVGSALANLKIPGVGSLSQSTINRFESLTLSHNNMIALKPILQAWLEEAEGAQREKMNKP [C45N],-0.084 ± 0.17
9,RELEAFAERFKQRRIKLGVTQADVGSALANLKIPGVGSLSQSTIMRFESLTLSHNNMIALKPILQAWLEEAEGAQREKMNKP [C45M],0.03 ± 0.08
10,RELEAFAERFKQRRIKLGVTQADVGSALANLKIPGVGSLSQSTICRFESLTLSHNNMIALHPILQAWLEEAEGAQREKMNKP [K61H],-0.265 ± 0.18
11,RELEAFAERFKQRRIKLGVTQADVGSALANLKIPGVGSLSQSTICRFESLTLSHNNMIALKPILQKWLEEAEGAQREKMNKP [A66K],0.044 ± 0.035
12,RELEAFAERFKQRRIKLGVTQADVGSALANLKIPGVGSLSQSTICRFCSLTLSHNNMIALKPILQAWLEEAEGAQREKMNKP [E48C],-1.27 ± 0.18
13,RELEAFAERFKQRRIKLGVTQADVGSILANLKIPGVGSLSQSTICRFESLTLSHNNMIALKPILQAWLEEAEGAQREKMNKP [A27I],-0.245 ± 0.17
14,RELEAFAERFKQRRIKLGVTQADVGSNLANLKIPGVGSLSQSTICRFESLTLSHNNMIALKPILQAWLEEAEGAQREKMNKP [A27N],-0.071 ± 0.12
15,RELEAFAERFKQRRIKLGVTQALVGSALANLKIPGVGSLSQSTICRFESLTLSHNNMIALKPILQAWLEEAEGAQREKMNKP [D23L],-0.281 ± 0.06
16,RELEAFAERFKQRRIKLGVTQADVGSALANLKIPGVGSLSQSTICRFESLTLSHRNMIALKPILQAWLEEAEGAQREKMNKP [N55R],0.045 ± 0.039
17,RELEAFAERFKQRRIKLGVTQADVGSALANLKIPGVGSLSQSTICRFESLTLSHNNMIALKPILQAWLEEAEGAQRETMNKP [K78T],-0.273 ± 0.1

row,Variant,abundance fitness
1,RELEAFAERFKQRRIKLGVTQADVGSALANLKIKGVGSLSQSTICRFESLTLSHNNMIALKPILQAWLEEAEGAQREKMNKP [P34K],-0.065 ± 0.043
2,RELEAFAERFKQRRIKLGVTQADVGSALANLKIPGVGSLSQSEICRFESLTLSHNNMIALKPILQAWLEEAEGAQREKMNKP [T43E],-0.187 ± 0.072
3,RELEAFAERFKQRRIKLGVTQADVGSALANLKIPGVGSLSQSTICRFESLTLSHNNMIALKPILQAQLEEAEGAQREKMNKP [W67Q],-0.712 ± 0.13
4,RELEAFAERFKQRRIKLGVTQADVGSALANLKIPGVGSLSQSTICRFESLTLSHNNMIALKPILQANLEEAEGAQREKMNKP [W67N],-0.65 ± 0.31
5,RELEAFAERFKQRRIKLGVTQADVGSALANLKIPGVGSLSQSTICIFESLTLSHNNMIALKPILQAWLEEAEGAQREKMNKP [R46I],-0.971 ± 0.33
6,RELEAFAERFKQRRIKLGVTQADVGSALANLKIPGVGSLSQSTICRFESLTLSHNNMIALKPICQAWLEEAEGAQREKMNKP [L64C],-0.499 ± 0.14
7,RELEAFAERFKQRRIKLGVTQADVGSALANLKIPGVGSLSQSTICRFESLTLSHNNMIALKPIYQAWLEEAEGAQREKMNKP [L64Y],-0.144 ± 0.19
8,RELEAFAERFKQRRIKLGVTQADVGSALANLKIPGVGSLSQSTICRFESLTLSYNNMIALKPILQAWLEEAEGAQREKMNKP [H54Y],0.057 ± 0.088
9,RELEAFAERFKQRRIKLGVTQADVGSALAVLKIPGVGSLSQSTICRFESLTLSHNNMIALKPILQAWLEEAEGAQREKMNKP [N30V],-0.233 ± 0.061
10,RELEAFAERFKQRRIKLGVTQADVGSALANLKIPGVGSLSQSTICRFESLTLSHNNMIALKPILQAWLEEAEGAQREKGNKP [M79G],0.009 ± 0.021
11,RELEAFAERFKQRPIKLGVTQADVGSALANLKIPGVGSLSQSTICRFESLTLSHNNMIALKPILQAWLEEAEGAQREKMNKP [R14P],-1.13 ± 0.12
12,RELEAFAERFKQRRIKLGVTQADVGSAVANLKIPGVGSLSQSTICRFESLTLSHNNMIALKPILQAWLEEAEGAQREKMNKP [L28V],-0.074 ± 0.025
13,RELEAFAERFKQRRIKLGVTQADVGSALANLKIPLVGSLSQSTICRFESLTLSHNNMIALKPILQAWLEEAEGAQREKMNKP [G35L],-0.303 ± 0.19
14,RELEAFAERFKQRRIKLGVTQADVGSALANLKIPGVGSLSQSTICRFESLTLSHNNMIALKPILQAWLEEAEWAQREKMNKP [G73W],-0.205 ± 0.067
15,RELEAFAERFKQRRIKLGVTQADVGSALANLKIPGVGSLSQSTICRFESLTLSHNNMIALKPILQAWLEEAECAQREKMNKP [G73C],-0.013 ± 0.075
16,RELEAFAERFKQRRIKLGVTQEDVGSALANLKIPGVGSLSQSTICRFESLTLSHNNMIALKPILQAWLEEAEGAQREKMNKP [A22E],0.043 ± 0.098
